From patent US20180214569A1 (Regeneron, published 2018) come the findings set out here.

One assay concerns the target T1, LukD (GS) (Staphylococcus aureus, UniProt O54082 27-327).
T1 sequence: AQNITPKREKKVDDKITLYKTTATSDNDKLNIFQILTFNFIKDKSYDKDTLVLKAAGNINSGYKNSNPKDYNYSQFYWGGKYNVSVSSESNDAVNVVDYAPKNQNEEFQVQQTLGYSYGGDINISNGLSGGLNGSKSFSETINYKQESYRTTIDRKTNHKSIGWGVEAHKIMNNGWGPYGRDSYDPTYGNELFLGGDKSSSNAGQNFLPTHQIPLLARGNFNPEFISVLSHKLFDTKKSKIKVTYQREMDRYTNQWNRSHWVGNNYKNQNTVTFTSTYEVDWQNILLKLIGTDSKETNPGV
Nature of the assay: ELISA, plate coated with toxin component, chemiluminescence. On the technique in general: An ELISA detects its analyte on a solid surface through an enzyme-linked reagent.

Another assay addresses T2, LukF (GS) (Staphylococcus aureus).
T2 construct: also called LukF-PV; F-component LukF from GenScript
The description is as above.

Another assay deals with T3, LukF (IBT) (Staphylococcus aureus).
T3 construct: also called LukF-PV; F-component LukF from IBT BioServices
The description is as above.

The target in another assay is T4, HlgB (GS) (Staphylococcus aureus, UniProt P0A077 26-325).
T4 sequence: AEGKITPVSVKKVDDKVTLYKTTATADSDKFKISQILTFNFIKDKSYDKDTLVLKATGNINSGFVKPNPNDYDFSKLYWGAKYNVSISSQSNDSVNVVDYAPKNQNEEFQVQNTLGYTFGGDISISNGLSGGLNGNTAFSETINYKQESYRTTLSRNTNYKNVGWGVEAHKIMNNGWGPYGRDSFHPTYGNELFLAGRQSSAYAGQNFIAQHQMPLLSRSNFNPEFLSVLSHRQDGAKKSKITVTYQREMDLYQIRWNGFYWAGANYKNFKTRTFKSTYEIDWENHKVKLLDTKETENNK
The description is as above.

The next assay addresses S. aureus delta toxin (Staphylococcus aureus, UniProt P0C1V1 1-26). The experiment in a line: ELISA, plate coated with toxin component.

Experimental for HlgB (GS): (§1) MaxiSorp microtiter plates were coated overnight with 10 μg/mL of individual F-components of S. aureus bicomponent toxins per well. Recombinant toxin components were either obtained from IBT BioServices (Gaithersburg, Md.) or generated by GenScript (Piscataway Township, N.J.). […] Wells were washed 3 times and then incubated with 100 ng/mL anti-human HRP secondary antibody per well for one hour at 25° C. 100 μL of SuperSignal ELISA Pico Chemiluminescent Substrate, (ThermoFisher Scientific) was added to the wells and signal was detected (Victor X3 plate reader, Perkin Elmer). Luminescence values were analyzed by a three-parameter logistic equation over an 11-point response curve (GraphPad Prism). Isotype-matched irrelevant control antibody and S. aureus delta toxin were included as controls.
Experimental for LukD (GS): as §1
Experimental for LukF (GS): as §1
Experimental for LukF (IBT): as §1
Experimental for S. aureus delta toxin: as §1

B1: H1H15381P (antibody, V domains shown)
VH: EVQLVESGGGLVQPGGSLRLSCAASGFTFSRYDMHWVRQVTGKGLEWVSVIGTAGDTYYPDSVKGRFTISRENAKNSLSLQMNSLRAGDTAVYYCTRSYNWNFPFGYWGQGTLVTVSS
VL: DIQMTQSPSTLSASVGDRVTITCRASQSISSWLAWYQQKPGKAPRLLIYEASSLETGVPSRFSGSGSGTEFTLTISSLQPDDFATYYCQQYNRYPWTFGQGTKVEIK
For B1, the EC50 (usually the midpoint of the concentration-response curve) with LukD (GS) amounted to 59.6 nM; in the assay with LukF (GS), 66.7 nM; with LukF (IBT), 165 nM; in the assay with HlgB (GS), 102 nM. In the assay with S. aureus delta toxin, the binding result was “no binding (tested: titration 50 uM-100 pM)”.
